The text below walks through data of paper doi:10.1101/2020.01.21.914390 (bioRxiv, 2020).

This experiment concerns the target GST tagged MYB52 fusion protein (Arabidopsis thaliana, UniProt Q6R0C4 1-249). Kind of experiment: pull-down.

GST tagged MYB52 fusion protein, sequence (Q6R0C4 whole entry, the tested form may be a part): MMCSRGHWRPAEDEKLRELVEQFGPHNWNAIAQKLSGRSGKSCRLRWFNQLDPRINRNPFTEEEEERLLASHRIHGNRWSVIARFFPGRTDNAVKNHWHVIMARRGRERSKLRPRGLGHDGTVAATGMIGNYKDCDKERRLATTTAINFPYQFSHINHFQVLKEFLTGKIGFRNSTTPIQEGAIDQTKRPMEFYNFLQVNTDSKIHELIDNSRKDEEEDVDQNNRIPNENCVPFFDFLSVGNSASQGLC

B1: MBP tagged ERF4 fusion protein (ETHYLENE RESPONSIVE FACTOR4) (natural protein)
chain: not shown
On to B1, for which the binding result is on record as “binds”.
